How the values were obtained:
[1] = molecular target: recombinant purified human IL-12 p70 (human) (UniProt P29459); experiment: cell-based or functional assay
[2] = molecular target: recombinant purified human IL-12 p70 (human) (UniProt P29459); experiment: SPR (Biacore 3000), mAb captured via goat anti-mouse IgG Fc, human IL-12 p70 in solution
[3] = molecular target: recombinant purified human IL-12 p70 (human) (UniProt P29459); experiment: SPR (BIAcore) per Example 1.1.B, recombinant human IL-12p70
[4] = molecular target: recombinant purified human IL-12 p70 (human) (UniProt P29459); experiment: SPR (Biacore) per Example 1.1.B; antigen not restated, taken as human IL-12 p70
[5] = molecular target: recombinant purified human IL-12 p70 (human) (UniProt P29459); experiment: SPR (BIAcore) per Example 1.1.B; antigen not restated, taken as human IL-12 p70
[6] = molecular target: recombinant purified human IL-12 p70 (human) (UniProt P29459); experiment: competition ELISA on plate-coated human IL-12; competes 0.8 µg/ml biotinylated 8E1; Expt. 3

Sequence of recombinant purified human IL-12 p70 (human) (chain, as listed by the source, form in doubt, chain 1 of 2): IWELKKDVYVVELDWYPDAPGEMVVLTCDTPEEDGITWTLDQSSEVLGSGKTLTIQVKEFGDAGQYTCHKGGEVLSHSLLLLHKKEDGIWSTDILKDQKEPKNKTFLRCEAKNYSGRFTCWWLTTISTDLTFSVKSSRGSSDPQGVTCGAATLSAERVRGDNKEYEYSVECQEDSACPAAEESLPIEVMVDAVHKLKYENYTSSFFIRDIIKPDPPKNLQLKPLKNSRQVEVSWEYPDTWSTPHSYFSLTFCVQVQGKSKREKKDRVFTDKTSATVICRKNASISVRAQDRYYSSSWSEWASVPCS
Sequence of recombinant purified human IL-12 p70 (human) (P29459 23-219, form in doubt, chain 2 of 2): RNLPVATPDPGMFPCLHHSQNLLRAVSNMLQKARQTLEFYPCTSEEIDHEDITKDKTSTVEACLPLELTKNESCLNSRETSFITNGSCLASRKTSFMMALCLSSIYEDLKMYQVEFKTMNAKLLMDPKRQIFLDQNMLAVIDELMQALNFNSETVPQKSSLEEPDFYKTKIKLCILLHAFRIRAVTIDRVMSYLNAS

B1: 7G3 (antibody, V domains shown)
VH: EVQLQQSGAEFVRSGASVKLSCTASGLNIKDYYIHWVKQRPEQVLDWIGWIDPENGYSEYAPRFQDKATMTADTSSNTAYLHLSSLTSEDTAVYYCNPGELARYFDYWGQGTTLTVSS
VL: DIVLSQSPATLSVTPGDSVSLSCRASQSISKNLHWYQQKSHESPRLLIKYTSQSISGIPSRFSGSGSGTDFTLSINSVETEDFGMYFCQQSISWPLTFGAGTKLELKR
[1]
  Average IC50 (nM) Human IL-12; PHA blast IFN-gamma induction assay: 0.047 nM
[2]
  Kd: 0.27 nM
  koff: 0.00028 s⁻¹
  kon: 1.1e+06 M⁻¹ s⁻¹

B2: 1A6.9 (antibody, human IgG1, kappa, L234A L235A, V domains shown)
VH: EVTLRESGPALVKPTQTLTLTCTFSGFSLSTSGMGVSWIRQPPGKALEWLAHIWWDGDNYYNPSLKSRLTISKDTSKNQVVLTMTNMDPVDTATYYCARRTRVNYAMDYWGQGTTVTVSS
VL: SVVMTQSPDSLAVSLGERATINCKASQSVSNDVAWFQQKPGQPPKLLIYYASNRYTGVPDRFSGSGYGTDFTLTISSLQAEDVAVYYCQQDYNSPWTFGGGTKVEIKR
[1]
  Av. IC50(nM) huIL-12; PHA blast IFN-gamma induction assay: 0.15 nM
[3]
  Kd: < 0.01 nM
  koff: < 1e-05 s⁻¹
  kon: 350000 M⁻¹ s⁻¹

B3: 1A6.12 (antibody, IgG1, V domains shown)
VH: EVTLRESGPGLVKPTQTLTLTCTLYGFSLSTSGMGVSWIRQPPGKGLEWLAHIWWDGDNYYNPSLKSQLTISKDTSKNQVVLKLTSVDPVDTATYYCARRTRVNYAMDYWGQGTLVTVSS
VL: DIQMTQSPSSLSASVGDRVTITCKASQSVSNDVAWFQQKPGKAPKLLIYYASNRYTGVPDRFSGSGYGTDFTFTISSLQPEDIATYYCQQDYNSPWTFGGGTKVEIKR
[1]
  Av. IC50(nM) huIL-12; PHA blast IFN-gamma induction assay: 0.088 nM
[4]
  Kd: 0.4 nM
  koff: 0.0003 s⁻¹
  kon: 740000 M⁻¹ s⁻¹

B4: 1A6.10 (antibody, V domains shown)
VH: EVTLRESGPGLVKPTQTLTLTCTLYGFSLSTSGMGVSWIRQPPGKGLEWLAHIWWDGDNYYNPSLKSQLTISKDTSKNQVVLKLTSVDPVDTATYYCARRTRVNYAMDYWGQGTLVTVSS
VL: DIQMTQSPSSLSASVGDRVTITCKASQSVSNDVAWYQQKPGKAPKLLIYYASNRYTGVPDRFSGSGYGTDFTFTISSLQPEDIATYYCQQDYNSPWTFGGGTKVEIKR
[1]
  Av. IC50(nM) huIL-12; PHA blast IFN-gamma induction assay: 0.15 nM
[4]
  Kd: 0.024 nM
  koff: 7.6e-06 s⁻¹
  kon: 320000 M⁻¹ s⁻¹

B5: 1A6.4 (antibody, human IgG1, V domains shown)
VH: QVTLKESGPGILKPSQTLSLTCSFSGFSLSTSGMGVSWIRQPSGKGLEWLAHIWWDGDNYYNPSLKSQLTISKDTSRNQVFLRIATVDTADTATYYCARRTRVNYAMDYWGQGTSVTVSS
VL: EIVMTQSPATLSVSPGERATLSCKASQSVSNDVAWYQQKPGQAPRLLIYYASNRYTGIPARFSGSGSGTEFTLTISSLQSEDFAVYYCQQDYNSPWTFGGGTKVEIKR
[1]
  Av. IC50(nM) huIL-12; PHA blast IFN-gamma induction assay: 2.1 nM
[5]
  Kd: 1 nM
  koff: 0.00011 s⁻¹
  kon: 110000 M⁻¹ s⁻¹

B6: 1D4 (antibody, V domains shown)
VH: QVTLKESGPGILQPSQTLSLTCSFSGFSLRKSVMGVSWIRQPSGKGLEWLAHIYWDDDKYYNPSLKSRLTISKDPSRNQVFLKITSVDTADAATYYCTRRGIRSAMDYWGQGTSVTVSS
VL: SVVMTQTPKFLLVSAGDRVTITCKASQSVSNDVAWYQQKPGQSPKLLIYYASNRYTGVPDRFTGSGYGTDFTFIISTVRAEDLAVYFCQQDYNSPWTFGGGTKLEIKR
[1]
  Average IC50 (nM) Human IL-12; PHA blast IFN-gamma induction assay: 0.031 nM
[2]
  Kd: 0.12 nM
  koff: 2.9e-05 s⁻¹
  kon: 250000 M⁻¹ s⁻¹

B7: 1D8 (antibody, V domains shown)
VH: QVQLQQSGAELMKPGASVKISCKATGYTFSSYWIEWVKQRPGHGLEWIGDILPGSGSTNYNEKFKDKATFTADTSFNTAYMQLSSLTSEDSAVYYCATRRFRGLDYWGQGTTLTVSS
VL: SIVMTQTPKFLLVSAGDRVTITCKASQSVSNDVAWYQQKSGQSPKLLIYYASNRYTGVPDRFTGSGYGTDFTFTISTVQPEDLAVYFCQQDYTSPFTFGSGTKLEIKR
[1]
  Average IC50 (nM) Human IL-12; PHA blast IFN-gamma induction assay: 0.31 nM
[2]
  Kd: 0.044 nM
  koff: 2.3e-05 s⁻¹
  kon: 510000 M⁻¹ s⁻¹

B8: 1A6.3 (antibody, human IgG1, V domains shown)
VH: EVTLKESGPVLVKPTETLTLTCTVSGFSLSTSGMGVSWIRQPPGKALEWLAHIWWDGDNYYNPSLKSRLTISKDTSKSQVVLTMTNMDPVDTATYYCARRTRVNYAMDYWGQGTTVTVSS
VL: SVVMTQTPKFLLVSAGDRVTITCKASQSVSNDVAWFQQKPGQSPKLLIYYASNRYTGVPDRFTGSGYGTDFTFTISTVQAEDLAVYFCQQDYNSPWTFGGGTKLEIKR
[1]
  Av. IC50(nM) huIL-12; PHA blast IFN-gamma induction assay: 0.068 nM
[5]
  Kd: 0.14 nM
  koff: 2.6e-05 s⁻¹
  kon: 190000 M⁻¹ s⁻¹

B9: 1D4.5 (antibody, human IgG1, V domains shown)
VH: QVTLKESGPGILQPSQTLSLTCSFSGFSLRKSVMGVSWIRQPSGKGLEWLAHIYWDDDKYYNPSLKSRLTISKDPSRNQVFLKITSVDTADAATYYCTRRGIRSAMDYWGQGTSVTVSS
VL: DIVMTQSPDSLAVSLGERATINCKASQSVSNDVAWYQQKPGQPPKLLIYYASNRYTGVPDRFSGSGSGTDFTLTISSLQAEDVAVYYCQQDYNSPWTFGGGTKVEIKR
[1]
  Av. IC50(nM) huIL-12; PHA blast IFN-gamma induction assay: 0.053 nM
[5]
  Kd: 0.11 nM
  koff: 3.1e-05 s⁻¹
  kon: 300000 M⁻¹ s⁻¹

B10: 1H6 (antibody, V domains shown)
VH: EVKLVESGGGLVQPGGSRKLSCAASGFTFSDYGMVWVRQAPGKGLEWVAYISSGSSTIHYADTMKGRFTISRDNPKNTLFLQMSSLRSEDTAMYYCARRHYYAMDYWGQGTSVTVSS
VL: SFVMTQTPKFLLVSAGDRVTITCKASQSVSNDVAWYQQKPGQSPKLLIYYASNRYTGVPDRFTGTGYGTDFTFTISTVQAEDLAVYFCQQDYTSPFTFGSGTKLEIKR
[1]
  Average IC50 (nM) Human IL-12; PHA blast IFN-gamma induction assay: 0.69 nM
[2]
  Kd: 0.25 nM
  koff: 9.9e-05 s⁻¹
  kon: 430000 M⁻¹ s⁻¹

B11: 3G7 (antibody, V domains shown)
VH: QVQLQQSGAELMKPGASVKISCKATGYTFNDYWIEWVKQRPGHGLEWIGGFSHGSGSTNYNEKFKGKATFTADSSSNTAYMQLSSLTSEDSAVYYCARRRFRGMDYWGQGTSVTVSS
VL: SIVMTQTPKFLLVSAGDRVTITCKASQSVSNDVAWYQQKPGQSPKLLIYYASNRYTGVPDRFTGSGYGTDFTFTITTVQAEDLAVYFCQQDYSSPWSFGGGTKLEIKR
[1]
  Average IC50 (nM) Human IL-12; PHA blast IFN-gamma induction assay: 0.15 nM
[2]
  Kd: 0.047 nM
  koff: 3.8e-05 s⁻¹
  kon: 820000 M⁻¹ s⁻¹

B12: 5E8 (antibody, V domains shown)
VH: QIQLVQSGPELKKPGETVKISCKASGYSFTDYSMHWVKQAPGKGLKWMDWINTETGEPTYADDFKGRFAFSLETSASTAYLQINNLKNEDTATYFCSRRRYRAFDYWGQGTTLTVSS
VL: SIVMTQSPKFLLVSAGDRVTITCKASQSVSNDVAWYQQKLGQSPKLLIYYASNRYTGVPDRFTGSGYGTDFTFTINTVQAEDLAVYFCQQDYTSPYTFGGGTKLEIQR
[1]
  Average IC50 (nM) Human IL-12; PHA blast IFN-gamma induction assay: 12 nM
[2]
  Kd: 4 nM
  koff: 0.0023 s⁻¹
  kon: 570000 M⁻¹ s⁻¹

B13: 1A6 (antibody, V domains shown)
VH: QVTLKESGPGILKPSQTLSLTCSFSGFSLSTSGMGVSWIRQPSGKGLEWLAHIWWDGDNYYNPSLKSQLTISKDTSRNQVFLRIATVDTADTATYYCARRTRVNYAMDYWGQGTSVTVSS
VL: SVVMTQTPKFLLVSAGDRVTITCKASQSVSNDVAWFQQKPGQSPKLLIYYASNRYTGVPDRFTGSGYGTDFTFTISTVQAEDLAVYFCQQDYNSPWTFGGGTKLEIKR
[1]
  Average IC50 (nM) Human IL-12; PHA blast IFN-gamma induction assay: 0.052 nM
[2]
  Kd: 0.23 nM
  koff: 3.5e-05 s⁻¹
  kon: 150000 M⁻¹ s⁻¹

B14: 4B4 (antibody, V domains shown)
VH: QVTLKESGPGILKPSQTLSLTCSLSGFSLSTSGMGVSWIRQPSGKGLEWLAHIWWDGDSYSNPSLRSRLTISRDTSRNQVFLRIATVDTADTATYYCARRTRVNYAMDYWGQGTSVTVSS
VL: SVVMTQTPKFLLVSAGDRVTMTCKASQSVSNDVAWFQQKPGQSPKLLIYYASNRYTGVPDRFTGSGYGTDFTFTISTVQAEDLAVYFCQQDYNSPWTFGGGTKLEIKR
[1]
  Average IC50 (nM) Human IL-12; PHA blast IFN-gamma induction assay: 0.039 nM
[2]
  Kd: 0.1 nM
  koff: 1.4e-05 s⁻¹
  kon: 130000 M⁻¹ s⁻¹

B15: 1D4.4 (antibody, human IgG1, V domains shown)
VH: EVTLRESGPALVKPTQTLTLTCTFSGFSLSKSVMGVSWIRQPPGKALEWLAHIYWDDDKYYNPSLKSRLTISKDTSKNQVVLTMTNMDPVDTATYYCARRGIRSAMDYWGQGTTVTVSS
VL: SVVMTQTPKFLLVSAGDRVTITCKASQSVSNDVAWYQQKPGQSPKLLIYYASNRYTGVPDRFTGSGYGTDFTFIISTVRAEDLAVYFCQQDYNSPWTFGGGTKLEIKR
[1]
  Av. IC50(nM) huIL-12; PHA blast IFN-gamma induction assay: 0.64 nM
[5]
  Kd: 0.074 nM
  koff: 2.1e-05 s⁻¹
  kon: 280000 M⁻¹ s⁻¹

B16: 8E1.3 (antibody, human IgG1, kappa, L234A L235A, V domains shown)
VH: EVKLVESGGGLVQPGGSLRLSCAASGFTFSDYGMVWVRQAPGKGLEWVASISSGSSNIYYADTVKGRFTISRDDSKNTLYLQMNSLKTEDTAVYYCARNPYWGQGTTVTVSS
VL: DIVMTQSPSSLSASVGDRVTITCKASQNVGTNVAWYQQKPEKAPKSLIYSASHRYSGVPSRFSGSGSGTDFTLTISSLQPEDFATYYCQQYNSYPLTFGGGTKVEIKR
[1]
  Av. IC50(nM) huIL-12; PHA blast IFN-gamma induction assay: 10 nM
[3]
  Kd: 0.76 nM
  koff: 0.001 s⁻¹
  kon: 1.3e+06 M⁻¹ s⁻¹

B17: 8E1.4 (antibody, IgG1, V domains shown)
VH: EVQLVESGGGLVQPGGSLRLSCAASGFTFSDYGMVWVRQAPGKGLEWVASISSGSSNIYYADTVKGRFTISRDNAKNTLYLQMNSLRAEDTAVYYCARNPYWGQGTLVTVSS
VL: DIQMTQSPSSLSASVGDRVTITCKASQNVGTNVAWYQQKPGKAPKGLIYSASHRYSGVPSRFSGSGSGTDFTLTISSLQPEDFATYYCQQYNSYPLTFGGGTKVEIKR
[1]
  Av. IC50(nM) huIL-12; PHA blast IFN-gamma induction assay: 12 nM
[4]
  Kd: 1.3 nM
  koff: 0.001 s⁻¹
  kon: 800000 M⁻¹ s⁻¹
[6]
  IC50: 8.33 µg/mL

Source: patent US20100047245A1
